Test results from the DeepSol protein solubility set.

Assay: soluble on expression in E. coli; label from the status in PepcDB or PDB records

| Sequence | soluble on expression in E. coli |
| --- | --- |
| GPGSMALVADVPPPTATSMAKLFQESSFDPVTTFEAVWLPPRVPAAPPTAGASEPVPFAAVVDVLADISATGSRLECLKQLTFLLLAVIERCPEDLVPVMYLVINKHAPQHEGVELGIGDAVLVKAVAECCGMTETRAKEEYRQSGDLAEIAQMHKQKQGTLMKPKPLSARSVFKTYKEIAMMSGRDVMRRRSDLIKGLLRDAQGPEVNLIVRGLQQKMRIGLAEPSALAAVGYAFALHFLGGAQMHKMDEVQLQTLLNTGADSLARIFYEVPSLDVVLSAVLANGFMTLVPGSSIAKQYAKDLSIRPGLPVKPQLAYPTSSITVILDRLQGKKFTSEYKYDGERAQIHYDKDKGFHIFSRNSETHTGKYPDVISMLPKVFDPVEVQSFILDSEVVAVHSETGALQAFQVLQHRGRKNIAEEDVSIPVCVFVFDILYFNGEPQLNKTLQQRRELLWRCIHPLPAKLSFATHLDSEKVEDVQTFLERSIADGCEGLMVKTLEEEANYTPAKRSHYWLKLKKDYMDGVTDTLDLVPIAAFYGKGKRTGVFGGFLLACYDPKADEYQSICKIGTGFQDEELEKLTQSLKPFVVDEKPRYYRAGGEEPDVWLTEAQVWEVKAADLSVSPVHQAAVGLVDPDKGIALRFPRYLRQREDKKPADATNARQVADMYKAQSLAAEHDANGDAE | not soluble |
| GPGSMDRSVAESIRQQSDDLRDELKELEQWEDAMQAREMAKAQRKVPLPTSVAAAEPPIRGTVPSLKEAIRQQQQQARATGTSGDTAAEAIADPIQQAKDKGNVLFQSGHLQEAVAAYTVGIDLDPASATTHVLYANRAMCYLKLGQWTAAEKDATTCVHMNTGYAKAYYRRAVARKQLGKLREARADLEAVLALAPKDVSAQQEMESVTKALQAKRAAESQATTTATTTKKKRIVIEEVDSEGDEAAAEAPATSASKLSTEEEELHQACIEEDMRRLAAARKANEEQVRQEAQREAAAQAKRQRRHERVEIIEEAEHSPAEKKKMAPSPATSSPVVEQTPPLSTSSPPSSSSPSPTSAATRPRARPPIAKESLTAPKSFSEFERRFRELVQQPDLRDHYVRLLDPATMAKLFGSNMSPEMLLGILQAIKTFNATTALQYAKGLCQVSRVEDVALFFDAQEKAVVQDVLDLLRSAPGTPAKDIQQIERKLKPL | soluble |
| GPGSMDSMCTFIIRPPRSTYEIADLGPGVFRIGDDCTERFMRHDFELENMRGLRFQCSWFKPYPARRVPCVVYCHANCGGRYDGLEALFLLQEGFSLFCFDFCGSGMSEGEYISLGFYERQDLVAIVEFLSLKSDEVDGVALWGRSMGAVATIMYASKGSIRGFVVLFAIRPSHPCGCSSTIWWSDMVGERPGFCQRFWCTGLWSASVSAS | not soluble |
| GPGSMERAATQSQSIYSNANTNSSNVNTYGNTVSSYLSNNSPNAVMYGGGNSGNGGAPSSTSVATVYASPTQASPSQAIRQQAQGAAQQNMSQSQTSTSFNAYGGGAASGSGSGFFYSTPSAQAPGAQTMYSANPSAAAMFPMRGGSTSMTPAQPTPTQMLTPQANAAAAAAAVWTNAAANINAGSKLFVGQVPAVCTEDQLRPLFAQFGTLLEIKIMREPNGRSKGSAWVRYELEESAQRAITALNEKHVVPPQTNPLRVQFAAPSTNRIPQPLSALGSIMPPSAVMQPQPQPNYATAATYATPQGYAGTTTAYMQGQYATSPNLMAVRASPQQQAAVQSASGKIEYLRSNHPGSLIYSTASPTAVDAMQQQQQQQSPQQQQVVYTTGGQMRAGVMYTPDAFAMTNQMAAAPQQPHQWCS | soluble |
| GPGSMFSCCLRSLARGREPQVLGTAVPSFYNFPYRAQDVLHLYRDLLKLIYQHPPQERADLLFRLRNEFHSRRHLSAPKLISAAIRRGEGILNVQRGLMESRSVRARAVASRERGAQSVDGLWDQLQIVSGHMLPGLRNFSASRGLSRGSYVRQATTQAVYSRRK | not soluble |
| GPGSMFVSDNDDYLPEPQAPGDHHMHEERLRRLEENFALLLNQRSVGNASGPKESTPKARVTAVAADVQAADERSLKLTYELRELVPHLSPGFDCCSADALLLLSAIRNGSHGRGCESWEDRLAVVKAEKRSLHHQLEKKAQECEELKNAVAEMKQRLKAERQEALSSVNVLSQRREQVRKQLLLEESRSQKLQVRNGQLESELERLKDMLHSCMRR | not soluble |
| GPGSMFYKMKLERNIKVEPHLLERTLHRHLEEYLRKAVEGTPLHLSLGNALRSGLARTNQNSSAVIIAVLDILNTSSLEGRVLDDGSVSFFVKYEGLVFKLHRGEVIDVIVSSVEREGWWGDVMGVGRMYISRGQMGNEWVYESDGMRGIWITKDGARSVKEGEIVRVRVVAETPQSEGVLAVGSMVGNYLGPL | not soluble |
| GPGSMGVDLTGISKKSRVIRHHTYSTNPYIKLLIKLYKFLAKRTSSGFNKVVYQRLIKSRSNRAPISLSRIAVVMKRKAVFTAKSKAAPIAVVVGDVLDDVRMARIPAMRVCALRFSKSARQSIVAAGGECLTFDQLAMIAPTGKNTYLLRGRKSGRESVRHFGASGVPGSHSKPYATNRGKETKRGRRTGRSYKRKAFRHV | soluble |
| GPGSMHLDEMLKEIQDMQEKNWTAVERTDIILAKLCAFLDKLAHSLRFMATSQPSCGAGAVCSAGVAVTTHTHGESARGLRISRDIRTAAAGRPFETEVDD | soluble |
| GPGSMIQSDIVSYVGEMGDVPDALLITPLKDRKSSVYLTKYEVARIIGERARQIVNGTSVLLDSQNGCGTGNSLELAEGCADPFAASVDPIHITKLELLQGRIPMIVRRTWPDGRTENIPVNELKVDKMLLDVQH | not soluble |
| GPGSMKERYDPLPPQLETYLRLIPPTSGAASGKADGDKKTGPRRSDDDPMSFYCTSFLMSREWDVQKAFAMMQEVVAYRAVNHLDEQSHFPPAFSVRGWSTEDVCRALERSPRKVGERIDRVCAGVAQGLICGIHYWDKNGRPVFYMVIDSFDEAELMRQLKQMASVGKSHVDVMWEYMVHVLSVTESLVLYQLIQRGAPLSGRPLTSKTTDEEAPAWDLSEGAVTMVYDMKRLTLKMLWKPIIDMFCDNSKTFFNYYPDRIHRIVCVNSPSLVRYAFLLVRGVLPAAFQRKISFVSPHDTLATLETMIDRKYIPHFLGGDCRCEAHDGECLSGYDPRQTGRTRRTVARTDASSEGNDEAPTVYVKLAAGHECTRVFPVNASEVVVWEFAVEGGGHDIIFTTFFVPQSAASGMQWTQVELSKLSSYMVTSEALAKGSDAFAVAEDGVVVLKWHNRRHWFASKRLQLRAYKEGAPSTLHGQASHPE | not soluble |
| GPGSMKPATIPHGKNDAEGAGARMYEGMNTLQKEELNDYLISQMGPGTKWHDEMSDVVNTIIRQRSINGEPLDVHDVLSEALPHCQLAISHEVRDGLFRRIAGMCTTTDV | soluble |
| GPGSMKTENFPRGQSAGPEGSLVEIPDHGERQQEVCHIGAPLQREIEAPAAEAGQSSDYKKPHAPHLLPVMEPVKPSSDPQLKDGRKEMPFTSALPIVVPDAPRLATQQRQVQKTKGNGSSAVPGEPDTCEGEPRAPSPGDPRPTQAFPAVEPFKRTASAKLSEARTDPRSPSASPDNESDGARVGSRQVDEEGSRPLCTLPAVELRKKPAGSTLQEEQAKELNTTHAFPVVEPDAVCTEARRSEELEDTRAGHAFPPVASGKQNTGA | soluble |
| GPGSMLDFLEQLQQLASVYAICGNAVSVMAGMSDTAEELTFRSYDSLEGASYICNLNEKALHTAKASLCDNADWSSFFREVQLAFNSGRVTVQPGNAHRVAVNAAAPVSADSKGLACSMEVHCLSGSGEKCATFVLERTTEDQQKYILESMLQAHHMYNHPKEYEQKLLHIMEAKEIACTKREALDRELVALNDNLTRNKHKQKINNERKEELLKKLGGYSTENTGNPWQAIQEQQQRTAGENTKSRLPSPLGNRTCKDFDLVLFRMIKSRWLSPEQCDASSPANRVVQPYSKEDLAIQVSQLSGSRAAIWKALDSIDSWSYRVFDVQAAMSGDDYLSLSTQTHGGSLLITMYALLCMHDFLQKFKIDEQIALNWISAVEASYHGNPYHNSMHAADVLQITDFIITQGGLAKRCDLSDIQVFSALLAASIHDFDHPGINNNFHIKTGSYLATLYNDRSVLENLHVSSVFELMKNPAFNILASFSDEQHHEVRETMIEMVLATDMGSHGKYVASLKGKMQEHSSFTQTAEQNLCLAIALKMADISNCGRPLDIYLRWGAKVSDEFYQQGDRERNLGLECSPFMDRLQPSLAKSQIAFMNYIITPFFEQVAELLPDMRFAVALVEENKAYWANHDDS | soluble |
